Measurements reported in the nanobody polyreactivity screen of Harvey et al. (2022).

Test: yeast display, Sf9 membrane polyspecificity reagent, FACS + sequencing; frameworks hold sequencing errors
Outline: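 Synthetic nanobody libraries on Saccharomyces cerevisiae BJ5465 were galactose-induced for 36–48 hours, stained 1 hour at 4 °C with 10% biotinylated, detergent-solubilized Sf9 membrane reagent and enriched on streptavidin microbeads. FACS then separated cells into low and high (top ~1%) gates by anti-HA (expression) and streptavidin (reagent binding) fluorescence. Genes were colony-PCR amplified, MiSeq 2 × 250 sequenced and CDR-length filtered. A clone's polyreactivity label is that of its gate of origin.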

Sequence | polyreactivity (PSR sort gate)
QVQLVESGGGLVQAGGSLRLSCAASGFTFRKNAKGWYRQAPGKERELVAAISSGSGSTYYADSVKGRFTISRDNAKNTVYLQMNSLKPEDNAVYYCNAEAYYTTGYPTSDVFDRYDYWGQGTQVTVSS | low polyreactivity
QVQLVESGGGLVQAGGSLRLSCAASGFTFRKNAMGWYRQAPGKERELVAAISSGTSTYYADSVKGRFTISRDNAKNTVYLQMNSLKPEDTAVYYCNAVSRKVYPGPMDYWGQGTQVTVSS | high polyreactivity
QVQLVESGGGLVQAGGSLRLSCAASGFTFRKYAMGWYRQAPGKERELVAGISWSGGTTYYADSVKGRFTISRDNAKNTVYLQMNSLKPEDTAVYYCNAKRVQVFAGYSYDYWGQGTQVTVSS | high polyreactivity
QVQLVESGGGLVQAGGSLRLSCAASGFTFRKYTMGWYRQAPGKERELVAAISSGFSTNYADSVKGRFTISRDNAKNSVYLQMNSLKPEDTAVYYCAARGGYYQGRYKYGYWGQGTQVTVSS | high polyreactivity
QVQLVESGGGLVQAGGSLRLSCAASGFTFRLYTMGWYRQAPGKDRELVAGISTSGGSTYYADSVKGRFTISRDNAKNTVYLQMNSLKPEDTAVYYCAAQAFTSYDYWGQGTQVTVSS | high polyreactivity
QVQLVESGGGLVQAGGSLRLSCAASGFTFRLYTMGWYRQAPGKERELVAAITYSGDSTYYADSVKGRFTISRDNAKNTVYLQMNSLKPEDTAVYYCAARKYYARYYWGQGTQVTVSS | high polyreactivity
QVQLVESGGGLVQAGGSLRLSCAASGFTFRLYVMGWYREAPGTERELVAALSSRGGSTYYADSVKGRFTISRDNAKYTVYLQMNRLKPDDTAFYYCAADRPRCRETVDYWGHGTQVTVSS | high polyreactivity
QVQLVESGGGLVQAGGSLRLSCAASGFTFRNYAMGWYRQAPGKEREFVAAISFSGGRTYYADSVKGRFTISRDNAKITVYLQMNSLKPEDTAVYFCAKKSYSKYEYWGQGTQVTVSS | low polyreactivity
QVQLVESGGGLVQAGGSLRLSCAASGFTFRNYAMGWYRQAPGKERELVAVIDWSGGRTYYADSVKGRFTISRDNAKNTVYLQMNSLKPEDTAVYYCNAVYGYRAYGGYGYWGQGTQVTVSS | high polyreactivity
QVQLVESGGGLVQAGGSLRLSCAASGFTFRQNAMGWYRQAPGKERELVAAISYSGGRTYYADSVKGRFTISRDNEMNTVYLQMNRLKPEDTAVYYCAVTYGIDYGYEYWGQGTQVTVSS | high polyreactivity
QVQLVESGGGLVQAGGSLRLSCAASGFTFRRNAMGWYRQAPGKEREFVAAITRSGGSTYYADSVKGRFTISRDNAKNTVYLQMNSLKPEDTAVYYCAADLPRWGSYGYGKMDHWGQGTQVTVSS | high polyreactivity
QVQLVESGGGLVQAGGSLRLSCAASGFTFRRNAMGWYRQAPGTERELVAAINVRDGSTYYADSVKGRFTISRDNAKNTVYVQMNSLKPEDTAVYYCAAEFFQGYYWYYYWGQGTQVTVSS | high polyreactivity
QVQLVESGGGLVQAGGSLRLSCAASGFTFRRYAMGWYRPAPGKERELVAAITPNGGSTYYADSVKGRFTISRDNAMNNFYLQMNRLKPEDTAVYYCNAVLYTPVYDGFDSWGQGTQVTVSS | high polyreactivity
QVQLVESGGGLVQAGGSLRLSCAASGFTFRRYAMGWYRQAPGKERELVAAINKSGGSTYYADSVKGRFTISRDNAKNTVYLQMNSLKPEDTAVYYCAKPLTAYSGFDHWGQGTQVTVSS | high polyreactivity
QVQLVESGGGLVQAGGSLRLSCAASGFTFRRYAMGWYRQAPGKERELVAAISGRGGSTYYADSVKGRFTISRDTAKNTVYLQINSLKPEDTAVYYCNDDRYVRWTPGDYWGQGTQVTVSS | high polyreactivity
QVQLVESGGGLVQAGGSLRLSCAASGFTFRRYAMGWYRQAPGKERELVAAISRSGGRTYYADSVKGRFTISRDNAKNTVYLQMNSLKPEDTAVYYCAARYFKPGGAYDSWGQGTQVTVSS | high polyreactivity
QVQLVESGGGLVQAGGSLRLSCAASGFTFRRYAMGWYRQAPGKERELVAAITYSGTRTYYADSVKGRFTISRDIAKNTVYLEMNSLSPEDTAVYYCNAGVGYFVGTYYGFLPYDYWGQGTQVTVSS | high polyreactivity
QVQLVESGGGLVQAGGSLRLSCAASGFTFRRYDMGWYRQAPGKERELVATINRGGSTDYADSVKGRFTISRDNAKNTVYLQLNSLKPEDTAVYYCATRYYSSRTWSEYYYWGQGTQVTVSS | high polyreactivity
QVQLVESGGGLVQAGGSLRLSCAASGFTFRSNAMGWYRQAPGKERELVATISSGGSTYYADSVKGRFTISRDNAKNTVYLQMNSLKPEDTAVYYCAADDLGWWFYSGGEDYDYWGQGTQVTVSS | low polyreactivity
QVQLVESGGGLVQAGGSLRLSCAASGFTFRSYAMGCYRQAPEKEMELVAAISRRGGSTYYADSVKGRFTISRDNAKNTVYLQMNSLKPEDTAVYFCAKDGTGAGTYDYWGQGTQVTVSS | low polyreactivity

Sequence | polyreactivity (PSR sort gate)
QVQLVESGGGLVQAGGSLRLSCAASGFTFRSYAMGWYRQAPGKERELVAAITSTGGRTYYADSVKGRFTISRDTAKNTVYLQMNSLKPEDTAVYYCAAGRKHYAPVHFGYWGQGTQVTVSS | high polyreactivity
QVQLVESGGGLVQAGGSLRLSCAASGFTFRSYDMGWYRQAPGKERELVAAISSTGRTYYADSVKGRFTISRDNAKNTVYLHMYSLNPEDTAVYYCARNIPVSYYRYGYWGQGSQVTVSS | high polyreactivity
QVQLVESGGGLVQAGGSLRLSCAASGFTFRSYTMGWYRQAPGKERELVAAITSGGSTYYADSVKGRFTISRDNAKNTVYLQMNSLKPEDTAVYYCAVTYRWHTFIYDYWGQGTQVTVSS | low polyreactivity
QVQLVESGGGLVQAGGSLRLSCAASGFTFRTNVMGWYRQAPGKERELVASISSTGSTNYADSVKGRFTISRDNAKNTVYLQMNSLKPEDTAVYYCARRYRYRYNYWGQGTQVTVSS | high polyreactivity
QVQLVESGGGLVQAGGSLRLSCAASGFTFRTYAMGWYRQAPGKERELVAAITRNGGTYYADSVKGRFTISRDNAKNTVYLQMHSLNPEDTAVYYCATDPAYWGDQPPEYDYWGQGTQVTVSS | low polyreactivity
QVQLVESGGGLVQAGGSLRLSCAASGFTFRVYAMGWYRQAPGKERELVAAISVRGDSTYYADSVKGRFTISRDNAKNTVYLQMNSLKPEDTAVYYCNAALLGKQYYSNPNYDYWGQGTQVTVSS | high polyreactivity
QVQLVESGGGLVQAGGSLRLSCAASGFTFRWYAMGWYRQAPGKERELVAAIDWSGTTTYADSVKGRFTISRDNAKNTVYLQMNSLKPEDTAVYYCAAVFRRSGYASPYDYWGQGTQVTVSS | high polyreactivity
QVQLVESGGGLVQAGGSLRLSCAASGFTFRYNAMGWYRKPPGKERELVAAITSGGNTNYADSVKGRFTISRDNAKNTVYLQMNSLKPEDTAVYYCNTAWRDYVARLGGVGYDYWGQGTQVTVSS | high polyreactivity
QVQLVESGGGLVQAGGSLRLSCAASGFTFRYNAMGWYRQAPGKERELVAAISRGTITNYADSVKGRFTISRDNAKNTVYLQMNSLKPEDTAVYYCAARYPGHFRFYYWGQGTQVTVSS | high polyreactivity
QVQLVESGGGLVQAGGSLRLSCAASGFTFRYYAMGCYRPAPGKERELVAAISSRGGTTYYADSVKGRFTISRDNAKNTVYLQMNSLKPEDTAVYYCAATYAYGRYYGYVYLGDYWGQGTQVTVSS | high polyreactivity
QVQLVESGGGLVQAGGSLRLSCAASGFTFRYYAMGWFRQAPGKESELVAAITWSGGGTYYADSVKGRFTISRYNAKNTVYLQMNSLKPEDTAVYYCNVYKSHRHQAEYNYWGQGTKVTVSS | high polyreactivity
QVQLVESGGGLVQAGGSLRLSCAASGFTFRYYAMGWYRPAPGKERELVAAISSRGGSTYYADSVKGRFTISRDNAKNTVYLQINSLKPEDTAVYYCAVVRWRHYIFATYDYWGQGTQVTVSS | high polyreactivity
QVQLVESGGGLVQAGGSLRLSCAASGFTFRYYAMGWYRQAPGKEREFVAAIRWRGATTYYADSVKGRFTISRDNAKNTVLLQMNSLKPEDTAVYYCAARYVYNSDRVSERDYWGQGTQVTVSS | high polyreactivity
QVQLVESGGGLVQAGGSLRLSCAASGFTFRYYAMGWYRQAPGKERELVAAIRRSGGSTYYADSVKGRFTISRDNAKNTVYLQMNSLKPEDTAVYYCAAVGPTYWRGYPSGYDYWGQGTQVTVSS | high polyreactivity
QVQLVESGGGLVQAGGSLRLSCAASGFTFRYYAMGWYRQAPGKERELVASITSSGSTNYADSVKGRFTISRDNAKNTVYLQMNSLKPEDTAVYYCAKGWGSDPFRKYGDYWGQGTQVTVSS | high polyreactivity
QVQLVESGGGLVQAGGSLRLSCAASGFTFRYYPMGWYRQAPGKERELVAAISWDRDSTYYADSVKGRFTISRDHAKHTVYFQMNSLKPEDTAVYYCAPEYRSWGRYRYRFNYWGQGTQVTVSS | high polyreactivity
QVQLVESGGGLVQAGGSLRLSCAASGFTFRYYTMGWYRQAPGKERELVAAINRSGSTNYADSVKGRFTISRDNAKNTVYLQMNSLKPEDTAVYYCAAAYYGSHGRYDYWGQGTQVTVSS | high polyreactivity
QVQLVESGGGLVQAGGSLRLSCAASGFTFRYYTMGWYRQAPGKETELVAAINTSGAGTYYADSVKGRFTISRDNAKNTVYLQMNSLKPEDTAVYYCAATWYGLDYNYWGQGTQVTVSS | high polyreactivity
QVQLVESGGGLVQAGGSLRLSCAASGFTFRYYTMVWYRQAPGKERELVAAITSSGGNTYYADSVKGRFTISRDNAKNTVYLQMNSLKPEDTAVYYCAADAYPQYNGWSWMDYWGQGTQVTVSS | low polyreactivity
QVQLVESGGGLVQAGGSLRLSCAASGFTFRYYVMGWYRQAPGKERELVAAISTRGGRTYYADSVKGRFTISRDNAKNTVYLQMNSLKPEDTAVYYCAKDAHHSYTWGYGYWGQGTQVTVSS | high polyreactivity
